Key:
[1] = target: 冠状病毒RaTG13 RBD蛋白 (coronavirus RaTG13)
[2] = target: SARS-CoV RBD蛋白 (SARS-CoV, UniProt P59594 306-527)

| Binder | Kd [1] [nM] | Kd [2] [nM] |
| --- | --- | --- |
| IMCAS-72 scFv (scFv, V domains shown) VH: QVQLVESGGGLVQPGGSLRLSCAASGFTFSSYGMHWVRQAPGKGLEWVAVISYDGSDKYYADSVKGRFTISRDNSKNTLYLQMNSLRAEDTAVYYCARDRDRFGDQGGWFDPWGQGTLVTVSS VL: not shown | 6.21 | – |
| IMCAS-364 scFv (scFv, V domains shown) VH: QVQLQESGGGVVQPGRSLRLSCAASGFTFSRYGMHWVRQAPGKGLEWVAVIWYDGSNKYYADSVKGRFTISRDNSKNTLYLQMNSLRADDTAVYYCAKQEGTYCSGGSCYSGLDYWGQGTLVTVSS VL: not shown | – | 8.17 |

Source: patent publication CN114397452A (dated 2022)
